The experiment concerns the target HA-OGT-D4 (D-box mutant R351A/L354A) (UniProt O15294).

“Flag-CDC20 (from UniProt Q12834 1-499) (natural protein)” showed a decrease in ubiquitination level of HA-OGT-D4 against HA-OGT-WT in 293T cells transfected with Myc-Ub and Flag-CDC20 (anti-HA precipitates blotted with anti-Myc) of 50%.

For the origin of these results see publication PMC11261447.
